Where a chain is given by its changes, count along the chain named. Numbers in names are those of the source.
B1: Dipeptidyl peptidase III, wild type (enzyme, human, UniProt Q9NY33 1-737, looked up)
chain: MADTQYILPNDIGVSSLDCREAFRLLSPTERLYAYHLSRAAWYGGLAVLLQTSPEAPYIYALLSRLFRAQDPDQLRQHALAEGLTEEEYQAFLVYAAGVYSNMGNYKSFGDTKFVPNLPKEKLERVILGSEAAQQHPEEVRGLWQTCGELMFSLEPRLRHLGLGKEGITTYFSGNCTMEDAKLAQDFLDSQNLSAYNTRLFKEVDGEGKPYYEVRLASVLGSEPSLDSEVTSKLKSYEFRGSPFQVTRGDYAPILQKVVEQLEKAKAYAANSHQGQMLAQYIESFTQGSIEAHKRGSRFWIQDKGPIVESYIGFIESYRDPFGSRGEFEGFVAVVNKAMSAKFERLVASAEQLLKELPWPPTFEKDKFLTPDFTSLDVLTFAGSGIPAGINIPNYDDLRQTEGFKNVSLGNVLAVAYATQREKLTFLEEDDKDLYILWKGPSFDVQVGLHELLGHGSGKLFVQDEKGAFNFDQETVINPETGEQIQSWYRSGETWDSKFSTIASSYEECRAESVGLYLCLHPQVLEIFGFEGADAEDVIYVNWLNMVRAGLLALEFYTPEAFNWRQAHMQARFVILRVLLEAGEGLVTITPTTGSDGRPDARVRLDRSKIRSVGKPALERFLRRLQVLKSTGDVAGGRALYEGYATVTDAPPECFLTLRDTVLLRKESRKLIVQPNTRLEGSDVQLLEYEASAAGLIRSFSERFPEDGPELEEILTQLATADARFWKGPSEAPSGQA
notes: Dipeptidyl peptidase III (DPP III, EC 3.4.14.4), human, wild type, cloned into pLATE31; also called DPP III; WT DPP III; source: E. coli BL21-(DE3)-RIL+, purified (Ni-NTA agarose)
B2: DPP III T481M variant (enzyme, human, UniProt Q9NY33 1-737, looked up)
chain: B1 chain with T481M
notes: source: E. coli BL21-(DE3)-RIL+, purified (Ni-NTA agarose)
B3: DPP III R510W variant (enzyme, human, UniProt Q9NY33 1-737, looked up)
chain: B1 chain with R510W
notes: as for B2
B4: DPP III Q484H variant (enzyme, human, UniProt Q9NY33 1-737, looked up)
chain: B1 chain with Q484H
notes: as for B2
B5: DPP III R638W variant (enzyme, human, UniProt Q9NY33 1-737, looked up)
chain: B1 chain with R638W
notes: as for B2
B6: DPP III G482C variant (enzyme, human, UniProt Q9NY33 1-737, looked up)
chain: B1 chain with G482C
notes: as for B2
B7: DPP III E451K variant (enzyme, human, UniProt Q9NY33 1-737, looked up)
chain: B1 chain with E451K
notes: as for B2
B8: DPP III E480Q variant (enzyme, human, UniProt Q9NY33 1-737, looked up)
chain: B1 chain with E480Q
notes: as for B2
B9: DPP III R703C variant (enzyme, human, UniProt Q9NY33 1-737, looked up)
chain: B1 chain with R703C
notes: as for B2
B10: DPP III P479S variant (enzyme, human, UniProt Q9NY33 1-737, looked up)
chain: B1 chain with P479S
notes: as for B2
B11: DPP III R638L variant (enzyme, human, UniProt Q9NY33 1-737, looked up)
chain: B1 chain with R638L
notes: as for B2

Target: T1, Kelch domain of KEAP1 protein (UniProt Q14145 321-609, fluorescently labeled with RED-MALEIMIDE (Cysteine reactive) fluorescent dye)
T1 construct: Kelch domain of KEAP1 (Kelch-like ECH associated protein 1); plasmid pET15b with Kelch insert, gift of Mark Hannink; also called Kelch-like ECH associated protein 1 (Kelch domain); source: E. coli BL21-(DE3)-RIL+, purified (Ni-NTA agarose)
T1 sequence (Q14145 321-609): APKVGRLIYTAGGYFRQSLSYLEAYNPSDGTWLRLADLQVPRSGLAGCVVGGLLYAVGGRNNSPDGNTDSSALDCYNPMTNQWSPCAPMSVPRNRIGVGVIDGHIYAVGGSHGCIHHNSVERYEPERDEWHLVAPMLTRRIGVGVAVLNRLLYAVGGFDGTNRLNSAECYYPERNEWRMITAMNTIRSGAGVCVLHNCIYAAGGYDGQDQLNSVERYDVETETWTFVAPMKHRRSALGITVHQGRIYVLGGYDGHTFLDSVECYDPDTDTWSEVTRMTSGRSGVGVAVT
Assay: MST; Kelch domain labeled with RED-MALEIMIDE, 50 nM; DPP III or variant added; binding-induced fluorescence change on Monolith NT.115; 25 °C; 50 mM Tris, 100 mM NaCl, pH 8.2, 0.05% Tween; triplicate
Conditions: both partners purified

| Binder | Kd(WT)/Kd(mut) |
| --- | --- |
| B1 | 1 |
| B2 | 0.1 |
| B3 | 0.3 |
| B4 | 2.1 |
| B5 | 2 |
| B6 | 0.8 |
| B7 | 2.1 |
| B8 | 0.1 |
| B9 | 1.7 |
| B10 | 18.4 |
| B11 | 2 |

Source: paper PMC8878202, “Interdisciplinary Study of the Effects of Dipeptidyl-Peptidase III Cancer Mutations on the KEAP1-NRF2 Signaling Pathway” (International Journal of Molecular Sciences, 2022)
